Results taken from the supplement of paper PMC9170038.

Test system: MS2 coat protein
Assay: apparent KD of MS2 coat protein; designed switch direction (-1 OFF switch, 1 ON switch): -1; higher = weaker reporter binding
Procedure, shortened: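 The reported apparent KD is a per-design median over clusters, from curve fits of normalised cluster fluorescence. Protein titrations used SNAP-549-labelled MS2 coat protein, doubled from 0.7 or 1.5 nM to 3 µM, in Tris-HCl pH 7.5 buffer with KCl, MgCl2, BSA, DTT, tRNA and Tween-20, with no input, 200 uM small-molecule ligand, or an oligonucleotide input. The RNA switches were transcribed on Illumina chips by stalled E. coli RNA polymerase.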

[1] = input ligand: microRNA oligo, concentration not stated
[2] = Eterna round: R95, input ligand: FMN 200 uM
[3] = Eterna round: R95, input ligand: microRNA oligo, concentration not stated
[4] = Eterna round: R95, input ligand: none

| Sequence | apparent KD of MS2 coat protein (input ligand: FMN 200 uM) [nM] | apparent KD of MS2 coat protein [1] [nM] | apparent KD of MS2 coat protein (input ligand: none) [nM] | apparent KD of MS2 coat protein [2] [nM] | apparent KD of MS2 coat protein [3] [nM] | apparent KD of MS2 coat protein [4] [nM] |
| --- | --- | --- | --- | --- | --- | --- |
| ACAUGUUAUGUAGGAUAUUAGACACAUGAGGAUCACCCAUGUAACCGGAGGCUUUACUAUGAGUUUGAGAAGGGUAUGAACAUG [Ex NG2 #66] (Eterna round: R96, puzzle: Exclusion NG 2) | 78.1 | 45.4 | 92.1 |  |  |  |
| UAUUAGCUUGCGAGAUCCGACAUGAGGAUCACCCAUGUGCUCGUCUUAUAUGGGAGGGAGGGAAAACCCUCCCUCCC [mod-Eli] (Eterna round: R97, puzzle: Sensor, turn-off variant 1) | 23.8 |  | 25.4 |  |  |  |
| CUCGGGAGUCAGGAUAUCGGCACAUAUCAAUCACGAGAAGGGACGACAUGAGGAUCACCCAUGUGGGAAAAGAA [Bivetilaza] (puzzle: Exclusion 6) |  |  |  | 92.9 | 38.1 | 41.7 |
| UGUGCGUAUGUGAGGAUAUGCUGGUCCUUGGAUCAGCAGAAGGCACAUGAGGAUCACCCAUGUGGUGUCGUACC [salish99_Bmod_Ex4_002] (puzzle: Brourd's mod of Exclusion 4) |  |  |  |  | 243 |  |
| AAAUUCAGAGGAUAUGCGCAUAGAUAAGACUUUGUUUCUUAACAUGAGGAUCACCCAUGUAGAAGGCUGUACAA [Ex2 #68] (Eterna round: R97, puzzle: Exclusion 2) | 16.1 |  | 13.4 |  |  |  |
| CUAAAUCAUGUAGGAUAUGCGUGGCAAAGCUAUGCAGAAGGACAUGAGGAUCACCCAUGUCAUUCCGUCUGGGAACAGACGGGA [Mat - Exclusion NG 1 - Mod of JL - D52] (Eterna round: R96, puzzle: Exclusion NG 1) | 158 | 17.5 | 24.5 |  |  |  |
| GCAGUGCGAGGAUAUACAUGAGGAUCACCCAUGUGAGAGAAAUAAGUGAGGAAGAAAAGUAGAAGGCGCGUUGG [Mat - Exclusion 3 - Mod of Salish D69] (puzzle: Exclusion 3) |  |  |  | 95.2 | 40.8 | 69.1 |
| UACAUGAGGAUCACCCAUGUUUUGUCGUGUAUGGUAUUUAUCUAGGAUAUCAUUUGAUUUAUUUAUGAGAAGGAGAAUAUUAAU [JMF's solution 100] (Eterna round: R96, puzzle: Exclusion NG 3) | 34.3 | 28.1 | 29.8 |  |  |  |
| AAAAUAAAGAUGCCUUAAAACAUGAGGAUCACCCAUGUGAGUAAGGAUAUCGGAACCAAUCGCGACGAGAAGGUACUCGCGUGU [Ceestemaat] (Eterna round: R96, puzzle: Exclusion NG 3) | 9.87 | 9.44 | 14.4 |  |  |  |
| ACUCAGUCAGGAUAUCAAUCCGCCUGUGAUACGCAGGCGGCUGAGAAGGGACAUGAGGAUCACCCAUGUAAAGA [jl-ex4-4.18 ViennaUCT mod] (Eterna round: R97, puzzle: Exclusion 4) | 538 |  | 129 |  |  |  |
| GUGGUACAUGAGGAUCACCCAUGUGAGGAUAUAGUCGGCUGGUGGUCGCGGGUGGUGGCUAGAAGGUGCGUGCG [-19.3, -16.9 kcal, A 18%] (Eterna round: R97, puzzle: Exclusion 1) | 171 |  | 179 |  |  |  |
| GGCCUGUAAGGAUAUUAGUAGUAGUCAGAAUAGACUAUUACUGAGAAGGUACAUGAGGAUCACCCAUGUUGGCC [Eli x4 4.06] (Eterna round: R97, puzzle: Exclusion 4) | 17.7 |  | 14 |  |  |  |
| ACAUGAGGAUCACCCAUGUCUGGCUGGUCCGCUCCGGCUGUUGAGGAUAUAGUUCGGUGUUCGCGCUAGAAGGUGAGGGCUGGC [Aenatbe mod 36] (Eterna round: R96, puzzle: Exclusion NG 3) | 27.7 | 24.4 | 38.8 |  |  |  |
| CGUCAGUGAGGAUAUGGUAACAUUUACAUGAGGAUCACCCAUGUUUCAUGGGACUAAAGACUAGAAGGCACUGACG [JR_Ex5_Sub031] (Eterna round: R97, puzzle: Exclusion 5) | 80.9 |  | 36.9 |  |  |  |
| UUUUUACAUGAGGAUCACCCAUGUCAGGAUAUGCUUAUAUUUUAUUAUUUUAUUUUUUGCAGAAGGGACUAUUA [My solution] (puzzle: Exclusion 1) |  |  |  |  | 80 |  |
| AAAUAACAAGCAGGAUCCUACAUGAGGAUCACCCAUGUGCUCGUCUUAUAAAGUACUAUCACGAAAGUGAUAGUACU [Mat - Sensor v3 - turn-off var 1 - Eli Mod - D72] (puzzle: Sensor v3, turn-off variant 1) |  |  |  | 153 | 93 | 156 |
| AAGAAAGGUGACAUGGGUGACAUGAGGAUCACCCAUGUUACAAGCUUGUUGCUCGUCUUAUAAUUAACCCAUGUCAU [LRO Sensor-off var1-19 mod of Stov1-13-A1 by Brourd] (Eterna round: R97, puzzle: Sensor, turn-off variant 1) | 55.3 |  | 64.6 |  |  |  |
| AUACACUAGCGAGGAUAUUGGAAAGGAAGUGUACAAGAAGGCGCCCGUGGAAGGGUGAAACAUGAGGAUCACCCAUGUGAAUAA [PowerStrip EXNG 1.29] (Eterna round: R96, puzzle: Exclusion NG 1) | 151 | 96.2 | 66.1 |  |  |  |
| AGUAUGUCAGGAUAUCUCGGGUAGUCCACAACAGCUACCGAAGAGAAGGGACAUGAGGAUCACCCAUGUACCAU [EX4 B.23] (Eterna round: R97, puzzle: Exclusion 4) | 19.4 |  | 30.6 |  |  |  |
| GUAUCGUGAGGAUAUCAUGAUUGACUUAAUUUAUGUCAGCGUGAGAAGGCACAUGAGGAUCACCCAUGUGAUUA [Ex4 - 3 - 6] (puzzle: Exclusion 4) |  |  |  |  | 20.5 |  |
| CGCGGAUGUAUAUGUCCGCACAUGAGGAUCACCCAUGUAAUAUAAGAUGAUAUUAAACAAAUUUUUGCUUGUCAGUU [Eternabot (L1) Solution 37] (Eterna round: R97, puzzle: Sensor, turn-off variant 1) | 31 |  | 38.2 |  |  |  |
| GUAGAGUCAGGAUAUACGAGAUCGAAAGAUCGGCGAUCCAAACAUGAGGAUCACCCAUGUAGAAGGGACUCUAC [Eli x2 4.004] (Eterna round: R97, puzzle: Exclusion 2) | 579 |  | 41 |  |  |  |
